Source: the RNAGym collection of RNA variant scans (doi:10.7554/elife.80360)

B1: HDV Ribozyme (parent)
chain: GGCCGGCAUGGUCCCAGCCUCCUCGCUGGCGCCGGCUGGGCAACAUUCCGAGGGGACCGUCCCCUCGGUAAUGGCGAAUGGGACCCA

Variants of: B1
Test: self-cleavage, relative activity (ratio to wild type); higher = more cleavage; co-transcriptional
Work on G10C C75G yielded a self-cleavage of 0.115.
In the case of G10C C44G, the self-cleavage is reported as 0.415.
G10C C44A gave a self-cleavage of 0.615.
G10C A83U showed a self-cleavage of 0.465.
In the case of G10C A83C, the self-cleavage is reported as 0.0615.
Variant G10C A42C has a self-cleavage of 0.142.
In the case of G10C G28A, the self-cleavage is reported as 0.0723.
Variant G10C C32U has a self-cleavage of 0.855.
G10C C32A gave a self-cleavage of 0.185.
Variant G10C C86U has a self-cleavage of 1.03.
G10C C86G gave a self-cleavage of 0.538.
In the case of G10A G52C, the self-cleavage is reported as 0.812.
For G10A G52U, the self-cleavage was 0.838.
Work on G10C A71U yielded a self-cleavage of 0.767.
Variant G10C A71G has a self-cleavage of 0.906.
G10C A71C gave a self-cleavage of 0.802.
Work on G10A G73C yielded a self-cleavage of 0.19.
G10A U20A gave a self-cleavage of 0.0831.
With G10A G11U the self-cleavage was 0.095.
Work on G10A G11C yielded a self-cleavage of 0.256.
In the case of G10C C26A, the self-cleavage is reported as 1.12.
G10C C26G showed a self-cleavage of 1.14.
G10C G29A showed a self-cleavage of 0.032.
For G10C C41A, the self-cleavage was 0.767.
G10C C41G showed a self-cleavage of 0.437.
G10C C41U gave a self-cleavage of 0.692.
G10C C48U showed a self-cleavage of 0.911.
In the case of G10C C48G, the self-cleavage is reported as 1.17.
Variant G10C C48A has a self-cleavage of 0.853.
Work on G10C C13G yielded a self-cleavage of 0.0723.
In the case of G10C C13A, the self-cleavage is reported as 0.
Work on G10C A70U yielded a self-cleavage of 0.65.
Work on G10C C15G yielded a self-cleavage of 0.0723.
Variant G10C G31U has a self-cleavage of 0.219.
With G10A G53A the self-cleavage was 0.841.
With G10A G53C the self-cleavage was 0.742.
G10A G53U gave a self-cleavage of 0.857.
Work on G10A G39U yielded a self-cleavage of 0.293.
Variant G10C G40C has a self-cleavage of 0.264.
Work on G10C C58G yielded a self-cleavage of 0.917.
In the case of G10C C30A, the self-cleavage is reported as 0.107.
With G10C C30G the self-cleavage was 0.212.
With G10A U37A the self-cleavage was 0.0944.
For G10A U37G, the self-cleavage was 0.198.
With G10A U37C the self-cleavage was 0.695.
With G10A C66U the self-cleavage was 0.853.
For G10A C66A, the self-cleavage was 0.82.
For G10A C86A, the self-cleavage was 0.82.
G10A C86G showed a self-cleavage of 0.639.
With G10C C14A the self-cleavage was 0.237.
For G10C G55U, the self-cleavage was 0.831.
For G10C G55C, the self-cleavage was 0.759.
G10A C41U showed a self-cleavage of 0.607.
For G10A C41G, the self-cleavage was 0.68.
G10C C33G showed a self-cleavage of 0.145.
G10C C33U showed a self-cleavage of 0.696.
With G10A U69A the self-cleavage was 0.677.
With G10A U69G the self-cleavage was 0.554.
G10A G80A showed a self-cleavage of 0.11.
In the case of G10A G80C, the self-cleavage is reported as 0.131.
Work on G10A G80U yielded a self-cleavage of 0.145.
Variant G10C C36U has a self-cleavage of 0.554.
In the case of G10C C36A, the self-cleavage is reported as 0.0627.
With G10C C36G the self-cleavage was 0.0831.
In the case of G10A U60G, the self-cleavage is reported as 0.748.
Variant G10A G81C has a self-cleavage of 0.22.
With G10A G81U the self-cleavage was 0.0468.
With G10A G81A the self-cleavage was 0.187.
With G10A G35U the self-cleavage was 0.499.
In the case of G10A G35A, the self-cleavage is reported as 0.281.
With G10A G35C the self-cleavage was 0.1.
In the case of G10A C58G, the self-cleavage is reported as 0.939.
In the case of G10C G53A, the self-cleavage is reported as 0.95.
For G10C C24G, the self-cleavage was 0.
For G10A C62A, the self-cleavage was 0.673.
In the case of G10A C62U, the self-cleavage is reported as 0.898.
Variant G10A G31C has a self-cleavage of 0.198.
Work on G10A G31U yielded a self-cleavage of 0.226.
Work on G10C C57A yielded a self-cleavage of 1.06.
G10C C19G showed a self-cleavage of 0.0811.
Work on G10C C19A yielded a self-cleavage of 0.0563.
With G10C C19U the self-cleavage was 0.0264.
For G10A C84U, the self-cleavage was 0.54.
Work on G10C A77U yielded a self-cleavage of 0.0554.
Variant G10C A77C has a self-cleavage of 0.208.
With G10C A16C the self-cleavage was 0.88.
With G10C C85G the self-cleavage was 0.76.
G10A G68U showed a self-cleavage of 0.562.
G10A G68A showed a self-cleavage of 0.604.
Variant G10A G68C has a self-cleavage of 0.453.
With G10C C66G the self-cleavage was 0.646.
With G10C C66U the self-cleavage was 0.862.
For G10C C66A, the self-cleavage was 0.848.
For G10A C61A, the self-cleavage was 0.674.
With G10A C61G the self-cleavage was 0.844.
Work on G10A U79C yielded a self-cleavage of 0.0882.
For G10A U79A, the self-cleavage was 0.302.
With G10A C36A the self-cleavage was 0.0687.
In the case of G10A C36U, the self-cleavage is reported as 0.396.
In the case of G10A G55A, the self-cleavage is reported as 0.831.
For G10A G55U, the self-cleavage was 0.698.
G10C C21A gave a self-cleavage of 0.0723.
G10C C21G gave a self-cleavage of 0.032.
G10C C21U gave a self-cleavage of 0.0256.
G10A G25U gave a self-cleavage of 0.0678.
G10C A56C showed a self-cleavage of 0.978.
In the case of G10C C61U, the self-cleavage is reported as 0.578.
With G10C C61A the self-cleavage was 0.734.
For G10A U12A, the self-cleavage was 0.0733.
G10A U12G showed a self-cleavage of 0.
With G10C G35C the self-cleavage was 0.102.
For G10C G35A, the self-cleavage was 0.525.
G10A C48G gave a self-cleavage of 0.671.
G10A C48A showed a self-cleavage of 0.739.
Work on G10C C18G yielded a self-cleavage of 0.0594.
Variant G10C G39C has a self-cleavage of 0.359.
Work on G10A U46C yielded a self-cleavage of 0.397.
G10A U46A showed a self-cleavage of 0.506.
G10C A78G showed a self-cleavage of 0.399.
G10C G50U gave a self-cleavage of 0.956.
In the case of G10C G50A, the self-cleavage is reported as 0.997.
For G10A U23A, the self-cleavage was 0.596.
G10A U23C gave a self-cleavage of 0.554.
With G10A U23G the self-cleavage was 0.181.
For G10C C22G, the self-cleavage was 0.
With G10C C22U the self-cleavage was 0.326.
With G10C C22A the self-cleavage was 0.108.
Work on G10A G74U yielded a self-cleavage of 0.257.
Work on G10A G74A yielded a self-cleavage of 0.101.
G10C G52C gave a self-cleavage of 0.78.
For G10C C84U, the self-cleavage was 0.604.
Variant G10A U65C has a self-cleavage of 0.769.
In the case of G10C A87U, the self-cleavage is reported as 0.984.
Work on G10A C64U yielded a self-cleavage of 0.661.
Variant G10C A43U has a self-cleavage of 0.415.
G10C A43G showed a self-cleavage of 0.317.
For G10C A43C, the self-cleavage was 0.219.
G10A G50U gave a self-cleavage of 0.67.
Variant G10C G34C has a self-cleavage of 0.289.
Work on G10A C49U yielded a self-cleavage of 0.831.
Variant G10A C49A has a self-cleavage of 0.665.
G10C G25C showed a self-cleavage of 0.178.
G10A U47A showed a self-cleavage of 0.665.
Variant G10A U47C has a self-cleavage of 0.554.
In the case of G10C, the self-cleavage is reported as 0.935.
G10A C85G gave a self-cleavage of 0.892.
Variant G10A C63G has a self-cleavage of 0.566.
G10A G40C showed a self-cleavage of 0.302.
In the case of G10C A51U, the self-cleavage is reported as 0.923.
Work on G10C A51G yielded a self-cleavage of 0.72.
Variant G10C G54C has a self-cleavage of 1.09.
Work on G10A G82A yielded a self-cleavage of 0.176.
For G10A G82U, the self-cleavage was 0.36.
Work on G10C G38C yielded a self-cleavage of 0.0941.
In the case of G10C G38A, the self-cleavage is reported as 0.0692.
For G10C G38U, the self-cleavage was 0.132.
For G10A G38C, the self-cleavage was 0.0692.
Variant G10A G38A has a self-cleavage of 0.0607.
G10A G17C showed a self-cleavage of 0.341.
G10A G17U gave a self-cleavage of 0.525.
G10C C62G showed a self-cleavage of 0.719.
G10A G28U showed a self-cleavage of 0.0848.
In the case of G10A G28A, the self-cleavage is reported as 0.0336.
G10A G28C showed a self-cleavage of 0.0683.
G10C A45G gave a self-cleavage of 0.791.
In the case of G10A G59A, the self-cleavage is reported as 0.853.
For G10A G59C, the self-cleavage was 0.684.
